This is an account of results in the PETadex activity labels (doi:10.1016/j.bbrc.2018.11.148).

Details in all cases: pH 8; 30 °C; part of the chain shown
Substrate in one data set: p-NP-C12
Substrate in a further data set: p-NP-C2
Substrate in another data set: p-NP-C4
Substrate in the next data set: p-NP-C6
Substrate in the next data set: p-NP-C8

B1: unnamed (protein)
chain: MNFPRASRLMQAAVLGGLMAVSAAATAQTNPYARGPNPTAASLEASAGPFTVRSFTVSRPSGYGAGTVYYPTNAGGTVGAIAIVPGYTARQSSIKWWGPRLASHGFVVITIDTNSTLDQPSSRSSQQMAALRQVASLNGTSSSPIYGKVDTARMGVMGWSMGGGGSLISAANNPSLKAAAPQAPWDSSTNFSSVTVPTLIFACENDSIAPVNSSALPIYDSMSRNAKQFLEINGGSHSCANSGNSNQALIGKKGVAWMKRFMDNDTRYSTFACENPNSTRVSDFRTANCS
For the protein B1, the Km (commonly the concentration of substrate that gives half-maximal velocity) with p-NP-C12 was 2280 µM; in the data set with p-NP-C2 it was 431 µM; with p-NP-C4 it was 315 µM; with p-NP-C6 it was 52.8 µM; with p-NP-C8, 48.1 µM. Further, the kcat (usually the maximal rate divided by the concentration of active sites) amounted to 1530 s⁻¹ in the data set with p-NP-C12; 1590 s⁻¹ with p-NP-C2; 1350 s⁻¹ with p-NP-C4; 1350 s⁻¹ in the data set with p-NP-C6; 519 s⁻¹ with p-NP-C8. Also, the specificity constant (kcat/Km) (commonly the second-order rate constant that governs catalysis at low substrate concentration) with p-NP-C12 was found to be 671000 M⁻¹ s⁻¹; in the data set with p-NP-C2, 3.69e+06 M⁻¹ s⁻¹; in the data set with p-NP-C4, 4.3e+06 M⁻¹ s⁻¹; with p-NP-C6 it was 2.55e+07 M⁻¹ s⁻¹; in the data set with p-NP-C8, 1.08e+07 M⁻¹ s⁻¹.
